Publication PMC2173940

Columns and labels:
soluble FcγRIIa = soluble FcγRIIa (UniProt P12318); test: SPR; BIAcore 2000; FcγRIIa, FcγRIIb or FcγRIIIa amine-coupled to CM5 (8000-10000 RU); IgG1-4, with or without EndoS treatment, injected, typically 10-1.25 µg/ml, 35 µl/min, 25°C; 10 mM HEPES pH 7.5, 150 mM NaCl, 0.005% P20, 3.4 mM EDTA; 1:1 Langmuir fit; empty flow cell as reference
soluble FcγRIIb = soluble FcγRIIb (UniProt P31994); test: as above
human IgG1 (human) = test: SPR; BIAcore 2000; IgG1-4 or deglycosylated IgG1-4 amine-coupled to CM5 (8000-10000 RU); EndoS or EndoS(E235Q) injected, typically 10-1.25 µg/ml, 35 µl/min, 25°C; 10 mM HEPES pH 7.5, 150 mM NaCl, 0.005% P20, 3.4 mM EDTA; 1:1 Langmuir fit; deglycosylated IgG flow cells as reference
human IgG2 (human) = test: as above
human IgG3 (human) = test: as above
human IgG4 (human) = test: as above

Chain of UniProt P31994 (P31994 43-217): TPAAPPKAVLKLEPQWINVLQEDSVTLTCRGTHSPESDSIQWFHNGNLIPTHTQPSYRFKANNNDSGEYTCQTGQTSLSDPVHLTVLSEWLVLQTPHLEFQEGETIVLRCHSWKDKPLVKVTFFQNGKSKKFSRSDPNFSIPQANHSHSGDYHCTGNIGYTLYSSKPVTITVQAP
Chain of UniProt P12318 (P12318 34-217): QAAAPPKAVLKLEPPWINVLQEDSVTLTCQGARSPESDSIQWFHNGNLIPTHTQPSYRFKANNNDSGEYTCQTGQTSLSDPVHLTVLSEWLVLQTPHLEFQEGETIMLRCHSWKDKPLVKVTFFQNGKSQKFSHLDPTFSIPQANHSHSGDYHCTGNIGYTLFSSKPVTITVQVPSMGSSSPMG

**Q.** For human IgG1 (antibody), which Kd (soluble FcγRIIa) is on record?
**A.** 97 nM

**Q.** For human IgG4 (antibody), which Kd (soluble FcγRIIb) is on record?
**A.** 200 nM

**Q.** And the koff (soluble FcγRIIb)?
**A.** 0.0069 s⁻¹

**Q.** And the kon (soluble FcγRIIb)?
**A.** 34000 M⁻¹ s⁻¹

B1: EndoS(E235Q), inactive form of EndoS (enzyme)
chain: EEKTVQVQKGLPSIDSLHYLSENSKKEFKEELSKAGQESQKVKEILAKAQQADKQAQELAKMKIPEKIPMKPLHGSLYGGYFRTWHDKTSDPTEKDKVNSMGELPKEVDLAFIFHDWTKDYSLFWKELATKHVPKLNKQGTRVIRTIPWRFLAGGDNSGIAEDTSKYPNTPEGNKALAKAIVDEYVYKYNLDGLDVDVQHDSIPKVDKKEDTAGVERSIQVFEEIGKLIGPKGVDKSRLFIMDSTYMADKNPLIERGAPYINLLLVQVYGSQGEKGGWEPVSNRPEKTMEERWQGYSKYIRPEQYMIGFSFYEENAQEGNLWYDINSRKDEDKANGINTDITGTRAERYARWQPKTGGVKGGIFSYAIDRDGVAHQPKKYAKQKEFKDATDNIFHSDYSVSKALKTVMLKDKSYDLIDEKDFPDKALREAVMAQVGTRKGDLERFNGTLRLDNPAIQSLEGLNKFKKLAQLDLIGLSRITKLDRSVLPANMKPGKDTLETVLETYKKDNKEEPATIPPVSLKVSGLTGLKELDLSGFDRETLAGLDAATLTSLEKVDISGNKLDLAPGTENRQIFDTMLSTISNHVGSNEQTVKFDKQKPTGHYPDTYGKTSLRLPVANEKVDLQSQLLFGTVTNQGTLINSEADYKAYQNHKIAGRSFVDSNYHYNNFKVSYENYTVKVTDSTLGTTTDKTLATDKEETYKVDFFSPADKTKAVHTAKVIVGDEKTMMVNLAEGATVIGGSADPVNARKVFDGQLGSETDNISLGWDSKQSIIFKLKEDGLIKHWRFFNDSARNPETTNKPIQEASLQIFNIKDYNLDNLLENPNKFDDEKYWITVDTYSAQGERATAFSNTLNNITSKYWRVVFDTKGDRYSSPVVPELQILGYPLPNADTIMKTVTTAKELSQQKDKFSQKMLDELKIKEMALETSLNSKIFDVTAINANAGVLKDCIEKRQLLKK
**Q.** What does the source list for B1?
**A.** Kd (human IgG1 (human)): 420 nM; koff (human IgG1 (human)): 0.0176 s⁻¹; kon (human IgG1 (human)): 42000 M⁻¹ s⁻¹; Kd (human IgG2 (human)): 210 nM; koff (human IgG2 (human)): 0.0025 s⁻¹; kon (human IgG2 (human)): 12000 M⁻¹ s⁻¹; Kd (human IgG3 (human)): 83 nM; koff (human IgG3 (human)): 0.0089 s⁻¹; kon (human IgG3 (human)): 107000 M⁻¹ s⁻¹; Kd (human IgG4 (human)): 140 nM; koff (human IgG4 (human)): 0.002 s⁻¹; kon (human IgG4 (human)): 15000 M⁻¹ s⁻¹
